Target: HMGA1a, non-phosphorylated (wt) (UniProt P17096 1-107)
Assay: ITC

Chain of HMGA1a, non-phosphorylated (wt) (P17096 whole entry): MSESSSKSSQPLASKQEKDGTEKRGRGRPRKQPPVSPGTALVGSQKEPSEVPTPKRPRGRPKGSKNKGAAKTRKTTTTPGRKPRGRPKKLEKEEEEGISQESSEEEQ

B1: PRD2 element of NFkB promoter (dsDNA)
DNA 1: GGGAAATTCCTC
DNA 2: GAGGAATTTCCC
Kd: ~100 nM

Reference: publication PMC7145567
